Results from patent US20160139131A1 (BIOALLIANCE C V, published 2016).
Each block holds one molecule with its values, some of them ahead of it. No end group written: not given here.

How the values were obtained:
[1] = target: CD43 on human peripheral T cells (human) (UniProt P16150); assay: flow cytometry on peripheral T cells
[2] = target: CD43 expressed on the surface of COLO 205 colorectal cancer cells (human) (UniProt P16150); assay: flow cytometry on COLO 205 cells
[3] = target: CD43 expressed on the surface of COLO 205 colorectal cancer cells (human) (UniProt P16150); assay: flow cytometry on COLO 205 cells; signal of biotinylated 5F1 (1 microgram/ml, competitor) with unlabeled antibody at 0.273 microgram/ml
[4] = target: T1, 5F1-01-2-14; assay: sandwich ELISA, 5F1 coated, peptide-carrier fusion
T1 construct: Tested as a fusion to an unnamed carrier protein
T1 peptide: WPIHSAHVRYTT
Method: (§1) To further confirm the tripeptide epitope that antibody 5F1 binds, Sandwich ELISA was performed. 96-well microtiter plates were coated with antibody (5F1 or control antibody 9E10) with 50 μl per well at the concentration of 1 μg/ml over night at 4° C. Plates were blocked by incubation with 0.25% of BSA in PBS (150 μl/well) for 1 hour at 37° C. Plates were then incubated with fusion proteins containing various fragments of polypeptides fused to a carrier protein for 2 hours at room temperature. After washing 4 times with PBS containing 0.05% of Tween 20, plates were then incubated with carrier protein-specific antibody at 2 μg/ml for 1.5 hours at room temperature. After incubation, plates were washed 4 times with PBST. 50 μl of 1 to 3000 diluted Goat anti-carrier protein-specific antibody conjugated with HRP was then added to each well and the plates were incubated for 1 hour at 37° C. Enzyme reaction was carried out by adding substrate of the HRP enzyme to determine the reactivity of the designated polypeptide to these to these two antibodies (5F1 and 9E10). […] Monoclonal antibody 5F1 recognized a tripeptide WPI epitope structure.

[5] = target: T2, 5F1-01-2-16 (also: fused to unnamed carrier protein); assay: sandwich ELISA, 5F1 coated, peptide-carrier fusion
T2 construct: Tested as a fusion to an unnamed carrier protein; not shown: the unnamed carrier protein to which the 12-mer was fused (and any linker to it)
T2 peptide: WPIDIPYAWDFS
Method: as §1

[6] = target: T3, 5F1-01-2-13 (also: fused to unnamed carrier protein); assay: sandwich ELISA, 5F1 coated, peptide-carrier fusion
T3 construct: Tested as a fusion to an unnamed carrier protein; not shown: the unnamed carrier protein to which the 12-mer was fused (and any linker to it)
T3 peptide: WPISPQPGARPV
Method: as §1

[7] = target: T4, 5F1-01-2-22; assay: sandwich ELISA, 5F1 coated, peptide-carrier fusion
T4 construct: Tested as a fusion to an unnamed carrier protein
T4 peptide: WPITNSDSRITW
Method: as §1

[8] = target: T5, 5F1-01-2-21 (also: fused to unnamed carrier protein, order not given here); assay: sandwich ELISA, 5F1 coated, peptide-carrier fusion
T5 construct: Tested as a fusion to an unnamed carrier protein; not shown: the unnamed carrier protein to which the 12-mer was fused (and any linker to it)
T5 peptide: WPIDLMSETPIL
Method: as §1

[9] = target: T6, 5F1-01-2-06 (also: fused to unnamed carrier protein); assay: sandwich ELISA, 5F1 coated, peptide-carrier fusion
T6 construct: Tested as a fusion to an unnamed carrier protein; not shown: the unnamed carrier protein to which the 12-mer was fused (and any linker to it)
T6 peptide: WPIPPEVEPFKH
Method: as §1

[10] = target: T7, 5F1-01-2-18 (also: fused to unnamed carrier protein); assay: sandwich ELISA, 5F1 coated, peptide-carrier fusion
T7 construct: Tested as a fusion to an unnamed carrier protein; not shown: the unnamed carrier protein to which the 12-mer was fused (and any linker to it)
T7 peptide: WPISGKHSFWSL
Method: as §1

[11] = target: T8, 5F1-01-2-17 (also: fused to unnamed carrier protein); assay: sandwich ELISA, 5F1 coated, peptide-carrier fusion
T8 construct: Tested as a fusion to an unnamed carrier protein; not shown: the unnamed carrier protein to which the 12-mer was fused (and any linker to it)
T8 peptide: WPILDHAVSRPS
Method: as §1

[12] = target: T9, 5F1-01-2-09 (also: fused to unnamed carrier protein); assay: sandwich ELISA, 5F1 coated, peptide-carrier fusion
T9 construct: Tested as a fusion to an unnamed carrier protein; not shown: the unnamed carrier protein to which the 12-mer was fused (and any linker to it)
T9 peptide: WPIAPNRYLLSS
Method: as §1

[13] = target: CD43 expressed on the surface of COLO 205 colorectal cancer cells (human) (UniProt P16150); assay: flow cytometry on COLO 205 cells; signal of biotinylated 5F1 (1 microgram/ml, competitor) with unlabeled antibody at 22.2 microgram/ml
[14] = target: T10, 9F9-01-03-25; assay: sandwich ELISA, 5F1 coated, peptide-carrier fusion
T10 construct: Tested as a fusion to an unnamed carrier protein
T10 peptide: EPNMDPNWASPS

[15] = target: T11, 9F9-01-03-24; assay: sandwich ELISA, 5F1 coated, peptide-carrier fusion
T11 construct: Tested as a fusion to an unnamed carrier protein
T11 peptide: AETDYDPDHFTP

[16] = target: T12, 5F1-01-2-23; assay: sandwich ELISA, 5F1 coated, peptide-carrier fusion
T12 construct: Tested as a fusion to an unnamed carrier protein
T12 peptide: WPIPTLMELPSA

[17] = target: T13, 5F1-01-2-04 (also: fused to unnamed carrier protein); assay: sandwich ELISA, 5F1 coated, peptide-carrier fusion
T13 construct: Tested as a fusion to an unnamed carrier protein; not shown: the unnamed carrier protein to which the 12-mer was fused (and any linker to it)
T13 peptide: WPIANHENALSA

[18] = target: T14, 9F9-01-03-17; assay: sandwich ELISA, 5F1 coated, peptide-carrier fusion
T14 construct: Tested as a fusion to an unnamed carrier protein
T14 peptide: AGQKWDPEWPHS

[19] = target: T15, 9F9-01-03-21; assay: sandwich ELISA, 5F1 coated, peptide-carrier fusion
T15 construct: Tested as a fusion to an unnamed carrier protein
T15 peptide: YDHHWTNPPTQK

[20] = target: T16, 9F9-01-03-18; assay: sandwich ELISA, 5F1 coated, peptide-carrier fusion
T16 construct: Tested as a fusion to an unnamed carrier protein
T16 peptide: DARYSHDPAWPY

[21] = target: CD43 expressed on the surface of COLO 205 colorectal cancer cells (human) (UniProt P16150); assay: flow cytometry on COLO 205 cells; signal of biotinylated 5F1 (1 microgram/ml, competitor) with unlabeled antibody at 66.7 microgram/ml
[22] = target: CD43 expressed on the surface of COLO 205 colorectal cancer cells (human) (UniProt P16150); assay: cell-based or functional assay
[23] = target: CD43 expressed on the surface of COLO 205 colorectal cancer cells (human) (UniProt P16150); assay: flow cytometry on COLO 205 cells; signal of biotinylated 5F1 (1 microgram/ml, competitor) with unlabeled antibody at 200 microgram/ml
[24] = target: CD43 expressed on the surface of COLO 205 colorectal cancer cells (human) (UniProt P16150); assay: flow cytometry on COLO 205 cells; signal of biotinylated 5F1 (1 microgram/ml, competitor) with unlabeled antibody at 2.46 microgram/ml
[25] = target: CD43 expressed on the surface of COLO 205 colorectal cancer cells (human) (UniProt P16150); assay: flow cytometry on COLO 205 cells; signal of biotinylated 5F1 (1 microgram/ml, competitor) with unlabeled antibody at 0.09 microgram/ml
[26] = target: CD43 expressed on the surface of COLO 205 colorectal cancer cells (human) (UniProt P16150); assay: flow cytometry on COLO 205 cells; signal of biotinylated 5F1 (1 microgram/ml, competitor) with unlabeled antibody at 0.03 microgram/ml
[27] = target: CD43 expressed on the surface of COLO 205 colorectal cancer cells (human) (UniProt P16150); assay: flow cytometry on COLO 205 cells; signal of biotinylated 5F1 (1 microgram/ml, competitor) with unlabeled antibody at 7.4 microgram/ml
[28] = target: CD43 on Jurkat cells (lymphoblastoid leukemia cell line; ATCC TIB-152) (human) (UniProt P16150); assay: flow cytometry on Jurkat cells
[29] = target: CD43 expressed on the surface of COLO 205 colorectal cancer cells (human) (UniProt P16150); assay: flow cytometry on COLO 205 cells; signal of biotinylated 5F1 (1 microgram/ml, competitor) with unlabeled antibody at 0.82 microgram/ml
[30] = target: CD43 expressed on the surface of NCI-N87 gastric cancer cells (human) (UniProt P16150); assay: flow cytometry on NCI-N87 cells
Chain of CD43 expressed on the surface of NCI-N87 gastric cancer cells (human) (P16150 20-400): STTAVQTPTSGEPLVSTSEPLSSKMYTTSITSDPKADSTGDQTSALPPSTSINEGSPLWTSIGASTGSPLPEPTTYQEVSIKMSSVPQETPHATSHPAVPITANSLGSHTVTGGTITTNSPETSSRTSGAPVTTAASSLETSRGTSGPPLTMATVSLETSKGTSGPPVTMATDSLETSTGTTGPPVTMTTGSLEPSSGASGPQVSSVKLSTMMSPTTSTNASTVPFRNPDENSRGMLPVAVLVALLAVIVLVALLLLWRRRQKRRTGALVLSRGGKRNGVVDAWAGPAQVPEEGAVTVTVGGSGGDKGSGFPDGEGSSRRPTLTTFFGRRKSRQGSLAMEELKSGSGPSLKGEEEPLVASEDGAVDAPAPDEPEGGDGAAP

Chain of CD43 expressed on the surface of COLO 205 colorectal cancer cells (human) (P16150 20-400): as above
Chain of CD43 on human peripheral T cells (human) (P16150 20-400): as above
Chain of CD43 on Jurkat cells (lymphoblastoid leukemia cell line; ATCC TIB-152) (human) (P16150 20-400): as above

% of Binding [1]: > 80%
% of Binding [2]: > 70%
Molecule: MEM-59 (anti-CD43; Biovendor, Candler, NC) (antibody)

Mean Fluorescence Intensity [3]: 1030
binding result [4]: binds
binding result [5]: binds
binding result [6]: binds
binding result [7]: binds
binding result [8]: binds
binding result [9]: binds
binding result [10]: binds
binding result [11]: binds
binding result [12]: binds
Mean Fluorescence Intensity [13]: 21.7
% of Binding [1]: < 10%
binding result [14]: no binding
binding result [15]: no binding
binding result [16]: binds
binding result [17]: binds
binding result [18]: no binding
binding result [19]: no binding
binding result [20]: no binding
Mean Fluorescence Intensity [21]: 60.3
% Apoptosis (annexin-V+) [22]: > 40%
Mean Fluorescence Intensity [23]: 9.78
Mean Fluorescence Intensity [24]: 733
Mean Fluorescence Intensity [25]: 825
Mean Fluorescence Intensity [26]: 888
% of Binding [2]: > 80%
Mean Fluorescence Intensity [27]: 129
% of Binding [28]: < 10%
Mean Fluorescence Intensity [29]: 1000
% of Binding [30]: > 80%
B1: monoclonal antibody 5F1 (antibody, V domains shown)
VH: EVQLQQSGPELVKPGASVRMSCTASGYTFTSYVMHWIKQKPGQGLDWIGYINPYNGGTQYNEKFKGKATLTSDKSSSTAYMELSSLTSEDSAVYYCARRTFPYYFDYWGQGTTLTVSS
VL: DVLMTQTPLSLPVSLGDQASISCRSSQSILHSNGNTYLEWYLQKPGQSPKLLIYKVSNRFSGVPDRFSGSGSGTDFTLKISRVEAEDLGVYYCFQGSHAPLTFGAGTKLELK
notes: also called m5F1; m133-5F1
